Reference: the domain aggregation screens of Martell et al. (2025)

Experiment: soluble fraction after stress (log2 fold change); higher = more stays soluble; pooled small domains, quantitative proteomics
Conditions: stress: 75 degC
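Also: 20 min heating vs room temperature control held 20 min.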

Sequence	soluble fraction (log2)
HMGLSIPLMGAKASDIEISTLNDEVQRKLKIIVKEQGHENLQRVVPLPSEAREIQAHFINGRLHLR	0.0158
HMGLYPYSGTPADNQEANERRIFDIYSTHLERIFSDFSGATLRTKRLVLRLMQELVHSDPVRMAGILDEL	0.0962
HMGMAQELMESRLTAVFTSGKDQLAVLQRKDGSTLKLGADSKPWRIESFDGRKAVFVSADQQRVERLL	-0.342
HMGMGIGQIIKEKRTALKMTQNELAERLGVSQQSVTGWENNAAVPRESAVRGMMDIFGLSRNELFGEP	0.389
HMGMMTLGQRIAQYRKAMGISQEELGGRLGVSRQAVSKWETDAAAPDMENLLALAREFGVSVAELTETP	-0.187
HMGMTRPLFVTDPGLVRIGLVSPIFEKLGSGKLSPQLFDQVKEDPPEQTVFDGVEFARETGIDGVIGFG	0.00642
HMGMVDKSMYSRYDVGDLVKVLRGPLEGSEGHITEINTDTGTVKVETVFFGRSTVVEVDFSEIDK	-1.37
HMGNAQELQKKLEGLKGISGIEKLESDHYAEKYLVRITQPVDHKNPAAGTFTQRVIVAHVGFDRPTILVT	0.51
HMGNHRNMSAEEEAAILAPFKARAEAGELVEISEIAKAYQSAVDHPISRGQIYFVLHRHGWRKV	-1.2
HMGNIALAIARFREMIAEDPNLQPVRLHLAMALMADHQDEAARGQLEKLRSDQLPDDIRKIVDDALAALR	-1.46
HMGNIIITPNPASDFIKIISNSPIIKFGFYDIYGNTINKKFNDNSINISDLPVGMYLINLNERYFKLLK	-0.259
HMGNIITQEAAVKLAQDRVPNATLVKIEYDFDDGRPVYEGELREGRWEYEFEIDAATGEFLKWEKD	0.0823
HMGNKWKPIILYLLSNGSMRFGMLNALIPTISKKVLTNQLKELENDGLLLRQSFAEIPPRVEYSLTEKA	-2.31
HMGNLASGAYEQIKRRILSLEYLPGSILQERGLAEELGISRTPVREAIHRLSQEGWLKINSRKNIRVR	-2.32
HMGNLASRVAEQLLDKMRGDSLVPGTRLPSEIAMAKHFGVSRTVMREAIARLKADGLLETRRGSGAFVLAT	-0.973
HMGNLEENFRLKAGTEDGAWEFIRYHLGKLPVVNESNGTAIVNAERQAFLLFDRMVAFHIQRGVMVPLSAP	-0.0214
HMGNLVDGINKKLTHVRDSLPEGYTLDEFKSAFQQQYPAAYDAYEGDKGKQFDKWLGNVIQSLPKK	0.0554
HMGNNSIDIKDVIYNLVEISQLQAFDIVKHFKTWENLVNKPDELDTVIDGDSDIVDRIKYKIKSLS	0.344
HMGNQALSSVLSDIAGIGPVKTKELLRVYPDLDSLRQAPVEEVAKVKGIGRQLAQKIHDHFSSR	-0.0292
HMGNRWENLISNKMIDDVDEELLRKYIAQAHDAGRIAISYTDRKTVLNQLELTDGDRLLNAGKVLFSD	-0.392
HMGNTTEVLVATQDVKANTKIKESMFTTERVDTASLPDNYLSADSAKDVVGYYTYIGFTKGSVISKSNIAT	0.625
HMGNVRSWKGWTSAGGTRVQMRQGDSINSMARRYGVPIQAIVAVNGIDDPAKVQPGQSVIIPTYVY	-0.29
HMGNWEQQLRSWADGELATGKQDILTTAVPAFERALIETALSHTNGRKRDAAELLGWGRNTLTRKLKELGM	-0.401
HMGNYEEAILAFEAAIKIDPKNADAYRKLAEAYEKTGDEDAALRTLETGAEATGDRELADLAEKKRQELDA	-0.0773
HMGPASTGAHQLGLKPGDEVTHRAWGEGVVTSTTGEGDRAEAVVDFDAVGEKRLLLAWAPLER	0.0111
HMGPDTVDRTRRFKWVDNEVVVNFGKNAGRTLRDLAENDPGFLRWIVRSDFSDEVRTIANDALMGKFPTRK	-0.283

Sequence	soluble fraction (log2)
HMGPEAFPVPYVVDIELDRAIYVIEQSGFIVGQKLEANDNNVPRGFVISQNPPAGTKLGPESIVDLVVSS	-1.16
HMGPLDIAQLKSDFLGGDAQLARRAWDQLATKAGDEGRDFLISSLGSSDPQIRNRVALGIHES	0.069
HMGPLTMGQRIVRLRTQAGLSQDALAEQLGVSRQSVSKWETDGSVPDLDRLVKLSKVFGVTLDELVKG	-0.202
HMGPPAVGAKLQVLRQARKLSLDELSRRAGVSKSMLSQVERNLANPTVAVLWRLATALGVGLADFLSP	-3.02
HMGPRVSAGPGRHRVQPGDTLDDIAARYRVSSRDLMLVNGLRNANHVEAGQTLKLPSNAVIA	0.15
HMGPSLIRIASNPVAEVFIDGTRVGTTPFEMPADGTLKTVRLTAKDHDDLVVPLRSMKSMEIMLTLRRI	-2.54
HMGPTLTDEEEVVLNLLEKNHPVLLSELKENAGLSNKKWDKAIKGLSAHKLAKVTKTDDGLFVHLS	0.615
HMGPTPTSAQLTEAKRLRTKLDDLNPELAERLWSEHREPYTETQYQTLIEKLAAEVQSAEGEIGR	0.222
HMGPVRRDLEINGRMVPLTIREHARATRITLRIEPGGQALRLTIPPGLPTREVDSFLTRHHGWLMTKLAHI	-2.47
HMGPWTETAAKGDAVSKRMLITWLQENADAEFLAAQKLTGQATSVAKRVTKDQLVELYLSVTTAA	-1.42
HMGQAAHYEGVKGDGESDTDVISRVLTAAGAEAQKDDIFVVKELIAGGKYSYTAYVYDGSVWAAM	-0.529
HMGQAEEVRYSTFLDEVRNGRIEQVVLQGEHIIGTRKDKTVFSVFNPETDYTALIGTLSKSGVTIEGRP	0.283
HMGQARQSAIRELGNDPTSGKKITVRSGRYGPYVTDGEVNASLRKGDDPQTIDLDRAIELLAARREKLG	-0.148
HMGQDGFIGLEAAKKLVLQKLGLTSAEFIKAELDAEDRKYELELIVDGIEYDFDIDAYSGAFLKQEQETV	-0.519
HMGQEEKDIFLKLINISGIGPKLALNILSGIEASELEEAVRNTNVTRLSMVPGIGQKTALRIIMELSDKLE	-0.298
HMGQELTMPDLKSMSRSNAEEKLKKMGLKLGAVFEENAKEPAGTVINQDPRSGSKITKGQTVDITVSLGEK	0.265
HMGQERAVPDVKGQSFDMAQGNISRAGLKAVVTDSVYDSYARPGTVVEQSPIPLAKIKRGGTVYLTLVA	-0.118
HMGQGSAFVYYEVLPKQTEYSLTRKLGLGYADLLSLNPQLARGLQAGMVLKIPRDKAGNLEVKNDLILE	-0.643
HMGQISLSVNAIPEKAEVILDGNSIGNTPIRKNTITPGSHMFEIEKKGYAPISYDIYVNPSKAINLDFFM	-0.974
HMGQKDYKTRLQEYFAKQGLKVNYEDTSHGPDHNKNFSTDVFLDGKIIGSGIGKSKKSSQQSAAKDALNIL	0.473
HMGQLIGKEEAKQIALSRAGVAEGDISRYESELDTDDGKTKYEISFHVGRVEYDIEINAVTGAVEKFEMDN	0.587
HMGQTDTIIKTTTDLYYEMSTMSDDDKLVVAQTLRDVWMAVGRWSGKLSKKQREKVAEVKRVLGE	-0.866
HMGQVAKPPLKELGADPVTGKPMVLKDGRFGPYVTDGEYNASLRKDDDIETIGVERAAELLQIRREKGP	-0.252
HMGQVGIPFSDFLAEVENGQVREVVIKGNDISGTFNDNRGFSTYAPNDPNLVEKLTKRGVVINAQPTE	0.077
HMGQVSEAGELEVAADRVIAANPEAVTKYKSGNENILQFLVGQMMKETKGAANPQVAAEILRKKIV	0.065
HMGRELDLNQRVYDFIHDIADEVRTDEGTFSANQMMERFLFPGDLQSVPIGRLSGGERRRLYLLSVLMVKI	-0.0184

Sequence	soluble fraction (log2)
HMGRFPSLTPVVIDALTAQYREHPGWTVQLHVDNLRVVLAANQTPLPSYPTIRRYLLAQGMRRQTRP	-0.396
HMGRLNMRRIRDVLRLKFGQGLSERQVAASLGLSKTSVGTYLHRARQAGLTWPLPQGLDDDGLELLLFP	-1.69
HMGRMTRKDRALATDLYGRIVGNVDDFHEGRIDYETFSERQRGLWTTLDAAGPEVKRAVLADIRERL	-0.563
HMGRWQPSTSAKQHGESALLLERLLHLERLTVSEAFHVLTINHRLNLSLPEYRSLLAVVQLPK	-1.8
HMGRYDWIEQIDDPVLAERLKHLTEDDLELLTRYVFEDATQKELASQYGIGQQSVSKRLKKLKSFLTK	-0.355
HMGSATAPDLKGLTYEQAQTKAEDAGYNIEKGEDVYDNDVEKGKVASQDPEAGAEAKEGSVITVNISK	-0.0215
HMGSFAADVGRMVRLGRAKRGISRRKLAADSGISERYLAQIEGGQGNPSVNVLKAIADAISVPVFELLPH	-1.74
HMGSFDDAPDQLRQSILQLLAEGPLPPSAITERLNISREDATEALQQLLDEQRIFAVNGMLQLQPG	-0.109
HMGSFTDKQIKQAFGVLNDPRFKQGNYDGAVAVINKIAPGLADHPSVANALKRANEATQDIAQQTQA	0.0868
HMGSGQIRYITENTVRVVYGTSKENEFVFQDGKPYPKDTPYHIHYTRNLEEYFMSGVEHDKNSKIILKVD	-0.946
HMGSGVNVTVNGKRMNLPLKDDHIIFVDIFNYIDFDLSKPKGSIVLKLNGRDAGYTDPIKDGDVIDIYWQ	-0.301
HMGSIDYLVGSRLRQYRRLRGYSLIEFSAMLHRSKSAISKYERGEVSIDLRTLNEMARLLDIPLSGLLL	-4.56
HMGSIEASFEEDVRRYLARKSMTTTEISKKMRQKRPDMSRDQLMTLLANAIKRIKPIKKKIKGTLYLSLE	-2.07
HMGSIMIIVLKENAPQQAAEKLMKEIRAKGLQIDVSKGTRKTVLGLVGDTSVIDMEHVQGYDYVDKVLRV	-1.11
HMGSKDLPFSTFMSEIDKGNITSVDIRGNEIQGTFANGTKFRTYSPNYPNLVEKLNGKGVSITAGPV	0.409
HMGSKKITIYVSGEVKNPGIVTLNSDQRLASAVEKLGGVTENADMNNINLAMKLEDEMHYIIPKKGEK	-0.0389
HMGSKQVSVPDVRNLDYERASQQLREAGFVVGDVLRIRDDRAPAGTVIAQSPAAPALVPENARVSLLVSSG	0.124
HMGSLAVVPSLTGKTLQEAQSKAADYGLALEIEGYVASTAVDYGRIVSQSPDAGFSVKSGSSVKVSVSAG	-0.0619
HMGSLGRAIRSRREKMKVGLEELAAKTGLSESHISDIEEGRGFAPVGDILKIARALTIDPGELLK	0.49
HMGSLGSLLKSVRNQRGLSRQQMAQSLNIGVRAIEQIEEGERKPDLELLNRYARGLMDPSVT	-0.166
HMGSLKEKIVLLEKLYQQNPSEEIKLLLINTYQLNHQYIQARKLFFTLTPEQKEKLPLASEFLIFL	-1.04
HMGSLNDQVMKYIDALPSAFNKRELDFLIERGVKEFALNGEYLEKAIINEYKLTADTYHRER	0.0903
HMGSLQPLLLAAIDALQTHIRSGLPFRVEERLAELDQFRTELQNGSVPPQRGVNRLWAFYEDEFRL	-1.06
HMGSLRSALDGIPGIGEQYQKRLLAQFGSVKAMRSASVEDFEAVRGIGRAKAQALYDALHAG	-0.221
